Laboratory results reported in patent publication US20140004106A1.

Experiments:
[1] = molecular target: 28mer peptide of the CXCR5 antigen; experiment: Antigen-ELISA; Citrate 10 mM pH 6.00, T0
[2] = molecular target: 28mer peptide of the CXCR5 antigen; experiment: Antigen-ELISA; standard, repeated values in the 3 weeks -20°C
[3] = molecular target: 28mer peptide of the CXCR5 antigen; experiment: Antigen-ELISA; PB 10 mM pH 6.50, after mechanical stress 350 rpm 2.5 h
[4] = molecular target: 28mer peptide of the CXCR5 antigen; experiment: Antigen-ELISA; Histidine 10 mM pH 6, T0
[5] = molecular target: 28mer peptide of the CXCR5 antigen; experiment: Potency (Antigen ELISA); stored -20°C, 18 months
[6] = molecular target: 28mer peptide of the CXCR5 antigen; experiment: Antigen-ELISA; Acetate 10 mM pH 5.50, after 1 week at +40°C
[7] = molecular target: 28mer peptide of the CXCR5 antigen; experiment: Antigen-ELISA; Citrate 10 mM pH 5.50, after mechanical stress 350 rpm 2.5 h
[8] = molecular target: 28mer peptide of the CXCR5 antigen; experiment: Antigen-ELISA; acetate 10 mM prototype B, repeated values in the 3 weeks -20°C
[9] = molecular target: 28mer peptide of the CXCR5 antigen; experiment: Antigen-ELISA; standard run with LA_09_28C, T0
[10] = molecular target: 28mer peptide of the CXCR5 antigen; experiment: Antigen-ELISA; standard run with LA_09_28D, T0
[11] = molecular target: 28mer peptide of the CXCR5 antigen; experiment: Antigen-ELISA; Citrate 10 mM pH 6.50, T0
[12] = molecular target: 28mer peptide of the CXCR5 antigen; experiment: Antigen-ELISA; Glycine 10 mM pH 7, T0
[13] = molecular target: 28mer peptide of the CXCR5 antigen; experiment: Antigen-ELISA; Citrate 10 mM pH 6.00, after 1 week at +40°C
[14] = molecular target: 28mer peptide of the CXCR5 antigen; experiment: Antigen-ELISA; PB 5 mM pH 7.00, after mechanical stress 350 rpm 2.5 h
[15] = molecular target: 28mer peptide of the CXCR5 antigen; experiment: Ag-ELISA; DS in PBS, 25°C, 3 months
[16] = molecular target: 28mer peptide of the CXCR5 antigen; experiment: Antigen-ELISA; Citrate 10 mM pH 6.50, after mechanical stress 350 rpm 2.5 h
[17] = molecular target: 28mer peptide of the CXCR5 antigen; experiment: Potency (Antigen ELISA); stored -20°C, 3 months
[18] = molecular target: 28mer peptide of the CXCR5 antigen; experiment: ELISA potency (binding); 100 mg/mL, Lysine (30) + Mannitol (15), T zero
[19] = molecular target: 28mer peptide of the CXCR5 antigen; experiment: Antigen-ELISA; PBS 155 mM pH 7.00, after mechanical stress 350 rpm 2.5 h
[20] = molecular target: 28mer peptide of the CXCR5 antigen; experiment: Antigen-ELISA; Succinate 10 mM pH 5.00, after 1 week at +40°C
[21] = molecular target: 28mer peptide of the CXCR5 antigen; experiment: ELISA potency (binding); 100 mg/mL, Glycine (20), 7 days at 40°C
[22] = molecular target: 28mer peptide of the CXCR5 antigen; experiment: Antigen-ELISA; standard run with LA_09_27B, T0
[23] = molecular target: 28mer peptide of the CXCR5 antigen; experiment: Antigen-ELISA; Citrate 10 mM pH 7.00, after 1 week at +40°C
[24] = molecular target: 28mer peptide of the CXCR5 antigen; experiment: ELISA potency (binding); 100 mg/mL, Arginine (30), T zero
[25] = molecular target: 28mer peptide of the CXCR5 antigen; experiment: Antigen-ELISA; standard run with LA_09_28B, T0
[26] = molecular target: 28mer peptide of the CXCR5 antigen; experiment: Antigen-ELISA; standard run with LA_09_004_5
[27] = molecular target: 28mer peptide of the CXCR5 antigen; experiment: Potency (Antigen ELISA); stored +5°C, initial
[28] = molecular target: 28mer peptide of the CXCR5 antigen; experiment: Antigen-ELISA; Citrate 10 mM pH 7.00, T0
[29] = molecular target: 28mer peptide of the CXCR5 antigen; experiment: Antigen-ELISA; PB 10 mM pH 7.50, T0
[30] = molecular target: 28mer peptide of the CXCR5 antigen; experiment: Antigen-ELISA; citrate 10 mM prototype B, T0
[31] = molecular target: 28mer peptide of the CXCR5 antigen; experiment: Antigen-ELISA; PB 10 mM pH 7.50, after mechanical stress 350 rpm 2.5 h
[32] = molecular target: 28mer peptide of the CXCR5 antigen; experiment: Antigen-ELISA; Succinate 10 mM pH 5.00, T0
[33] = molecular target: 28mer peptide of the CXCR5 antigen; experiment: Antigen-ELISA; citrate 10 mM prototype A, T0
[34] = molecular target: 28mer peptide of the CXCR5 antigen; experiment: Antigen-ELISA; PB 10 mM pH 7.00, T0
[35] = molecular target: 28mer peptide of the CXCR5 antigen; experiment: ELISA potency (binding); 100 mg/mL, Trehalose (60) + Mannitol (15), T zero
[36] = molecular target: 28mer peptide of the CXCR5 antigen; experiment: ELISA potency (binding); 100 mg/mL, Sucrose (60) + NaCl (2), 7 days at 40°C
[37] = molecular target: 28mer peptide of the CXCR5 antigen; experiment: ELISA potency (binding); 100 mg/mL, Sucrose (60) + NaCl (2), T zero
[38] = molecular target: 28mer peptide of the CXCR5 antigen; experiment: ELISA potency (binding); 100 mg/mL, Sucrose (60) + Mannitol (15), T zero
[39] = molecular target: 28mer peptide of the CXCR5 antigen; experiment: Ag-ELISA; DS in PBS, release
[40] = molecular target: 28mer peptide of the CXCR5 antigen; experiment: Antigen-ELISA; PBS 155 mM pH 7.00, after 1 week at +40°C
[41] = molecular target: 28mer peptide of the CXCR5 antigen; experiment: Potency (Antigen ELISA); stored +5°C, 1 month
[42] = molecular target: 28mer peptide of the CXCR5 antigen; experiment: ELISA potency (binding); 100 mg/mL, Trehalose (60) + Mannitol (15), 7 days at 40°C
[43] = molecular target: 28mer peptide of the CXCR5 antigen; experiment: Antigen-ELISA; Acetate 10 mM pH 5.50, T0

B1: Lead CXCR5 Antibody (humanized IgG4 anti-CXCR5 antibody) (antibody, V domains shown)
VH: QVQLKESGPGLVAPSESLSITCTVSGFSLIDYGVNWIRQPPGKGLEWLGVIWGDGTTYYNPSLKSRLSISKDNSKSQVFLKVTSLTTDDTAMYYCARIVYWGQGTLVTVSA
VL: DIVMTQAAPSVAVTPGASVSISCRSSKSLLHSSGKTYLYWFLQRPGQSPQLLIYRLSSLASGVPDRFSGSGSGTAFTLRISRVEAEDVGVYYCMQHLEYPYTFGGGTKLEIKR
[1]
  EC50 %: 52%
[2]
  EC50 %: 100%
[3]
  EC50 %: 89.4%
[4]
  EC50 %: 184%
[5]
  EC50 value (in comparison to reference): 127%
[6]
  EC50 %: 94.9%
[7]
  EC50 %: 79%
[8]
  EC50 %: 112%
[9]
  EC50 %: 100%
[10]
  EC50 %: 100%
[11]
  EC50 %: 59%
[12]
  EC50 %: 127%
[13]
  EC50 %: 98%
[14]
  EC50 %: 110%
[15]
  EC50 %: 108%
[16]
  EC50 %: 41%
[17]
  EC50 value (in comparison to reference): 84%
[18]
  rel. potency [%]: 88%
[19]
  EC50 %: 50%
[20]
  EC50 %: 157%
[21]
  rel. potency [%]: 180%
[22]
  EC50 %: 100%
[23]
  EC50 %: 111%
[24]
  rel. potency [%]: 160%
[25]
  EC50 %: 100%
[26]
  EC50 %: 100%
[27]
  EC50 value (in comparison to reference): 75%
[28]
  EC50 %: 59.9%
[29]
  EC50 %: 117%
[30]
  EC50 %: 104%
[31]
  EC50 %: 60.9%
[32]
  EC50 %: 124%
[33]
  EC50 %: 112%
[34]
  EC50 %: 145%
[35]
  rel. potency [%]: 156%
[36]
  rel. potency [%]: 188%
[37]
  rel. potency [%]: 165%
[38]
  rel. potency [%]: 205%
[39]
  EC50 %: 100%
[40]
  EC50 %: 97%
[41]
  EC50 value (in comparison to reference): 105%
[42]
  rel. potency [%]: 266%
[43]
  EC50 %: 180%
